From paper PMC12145522

How the values were obtained:
[1] = biological target: RNAP-HrpL holoenzyme (His-tagged) (Pseudomonas syringae pv. actinidiae | not stated) (UniProt P37929); assay: MST; RNAP-HrpL holoenzyme labelled with RED-Tris-NTA, 50 nM, titrated with GST-TrpR2 from 0.38 nM to 25 μM; MST buffer; 25℃; Monolith NT.115, medium MST power, 90 % LED power; triplicate
[2] = biological target: GST tagged TrpR2 (Pseudomonas syringae pv. actinidiae M228); assay: MST

Sequence of UniProt P37929 (P37929 whole entry, looked up): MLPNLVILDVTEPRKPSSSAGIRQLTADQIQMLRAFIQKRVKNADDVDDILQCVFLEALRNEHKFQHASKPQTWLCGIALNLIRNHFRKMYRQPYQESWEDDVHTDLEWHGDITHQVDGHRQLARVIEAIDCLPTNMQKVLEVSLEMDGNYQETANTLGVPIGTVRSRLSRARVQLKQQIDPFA

Substance	Kd [1] [µM]	Kd [2] [µM]
GST tagged TrpR2 (natural protein)	2.41	–
RNAP-His	–	7.75
